Earlier results in PMC5033469.

Molecular target: CD11c I domain (Homo sapiens) (UniProt P20702)
Sequence (P20702 165-339): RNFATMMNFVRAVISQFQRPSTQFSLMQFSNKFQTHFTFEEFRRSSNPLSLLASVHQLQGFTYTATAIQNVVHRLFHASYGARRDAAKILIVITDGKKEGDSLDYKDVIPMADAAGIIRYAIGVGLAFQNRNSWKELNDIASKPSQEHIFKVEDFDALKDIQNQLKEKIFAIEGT

Chain of fibrinogen (P02671 36-866): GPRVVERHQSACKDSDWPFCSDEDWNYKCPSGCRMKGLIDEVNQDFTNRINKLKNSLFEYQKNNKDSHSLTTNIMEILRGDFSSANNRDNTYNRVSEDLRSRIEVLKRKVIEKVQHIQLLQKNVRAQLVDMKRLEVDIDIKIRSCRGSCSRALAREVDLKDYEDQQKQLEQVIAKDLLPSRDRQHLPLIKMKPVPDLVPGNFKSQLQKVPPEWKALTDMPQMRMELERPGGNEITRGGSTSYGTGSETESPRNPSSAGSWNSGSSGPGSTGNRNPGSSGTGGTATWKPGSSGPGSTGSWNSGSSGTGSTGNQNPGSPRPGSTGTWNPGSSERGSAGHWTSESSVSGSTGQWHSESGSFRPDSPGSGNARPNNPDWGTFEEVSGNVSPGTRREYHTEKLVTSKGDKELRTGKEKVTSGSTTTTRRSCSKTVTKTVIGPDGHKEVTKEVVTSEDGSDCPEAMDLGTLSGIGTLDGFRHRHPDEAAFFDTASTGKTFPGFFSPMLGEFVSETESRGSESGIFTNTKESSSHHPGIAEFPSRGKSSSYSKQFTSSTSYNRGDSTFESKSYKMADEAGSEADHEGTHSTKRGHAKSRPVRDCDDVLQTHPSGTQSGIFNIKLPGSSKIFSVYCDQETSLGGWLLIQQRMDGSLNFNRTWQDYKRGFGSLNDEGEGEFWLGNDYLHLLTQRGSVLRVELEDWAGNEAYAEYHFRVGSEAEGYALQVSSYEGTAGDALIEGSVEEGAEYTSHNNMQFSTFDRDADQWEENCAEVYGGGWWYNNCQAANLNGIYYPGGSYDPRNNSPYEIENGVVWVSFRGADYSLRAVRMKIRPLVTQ
Chain of fibrinogen (P02675 45-491, further chain): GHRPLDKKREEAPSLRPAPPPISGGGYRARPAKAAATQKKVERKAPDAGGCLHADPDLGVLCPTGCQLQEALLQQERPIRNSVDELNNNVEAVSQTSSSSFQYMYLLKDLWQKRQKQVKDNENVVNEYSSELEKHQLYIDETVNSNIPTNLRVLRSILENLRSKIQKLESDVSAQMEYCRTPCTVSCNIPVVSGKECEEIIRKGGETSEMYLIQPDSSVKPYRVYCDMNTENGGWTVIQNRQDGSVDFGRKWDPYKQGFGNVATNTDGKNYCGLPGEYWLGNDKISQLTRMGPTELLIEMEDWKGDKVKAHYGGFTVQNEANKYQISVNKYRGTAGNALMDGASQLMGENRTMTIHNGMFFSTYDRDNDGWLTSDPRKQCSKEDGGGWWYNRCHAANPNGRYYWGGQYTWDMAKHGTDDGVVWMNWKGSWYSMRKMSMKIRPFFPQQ
Chain of fibrinogen (P02679 27-453, further chain): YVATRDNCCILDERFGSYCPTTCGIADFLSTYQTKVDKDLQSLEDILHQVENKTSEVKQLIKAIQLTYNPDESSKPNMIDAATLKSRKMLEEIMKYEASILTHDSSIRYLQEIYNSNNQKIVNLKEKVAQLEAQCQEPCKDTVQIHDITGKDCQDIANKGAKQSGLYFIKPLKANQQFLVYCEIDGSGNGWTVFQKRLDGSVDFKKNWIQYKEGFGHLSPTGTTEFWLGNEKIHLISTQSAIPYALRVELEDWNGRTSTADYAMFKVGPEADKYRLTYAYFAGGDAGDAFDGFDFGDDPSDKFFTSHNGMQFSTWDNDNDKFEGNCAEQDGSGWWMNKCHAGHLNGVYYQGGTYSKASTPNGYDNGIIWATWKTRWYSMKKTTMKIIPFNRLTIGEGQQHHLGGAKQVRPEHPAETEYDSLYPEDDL

Kd: 50 µM
Substance: fibrinogen (from UniProt P02671)
